Assay results reported in article doi:10.1101/2024.03.26.586665 (bioRxiv, 2024).

What was measured:
[1] = biological target: human CaMKIIα W403L hub (human) (UniProt Q9UQM7); assay: mass photometry
mass photometry = biological target: the molecule itself; assay: mass photometry
SAXS = biological target: the molecule itself; assay: SAXS

Molecule	stoichiometry N [1]	stoichiometry N (mass photometry)	stoichiometry N (SAXS)
human CaMKIIα W403L hub (from UniProt Q9UQM7 345-475) (domain or fragment)	12	–	–
human CaMKIIα WT hub (calcium/calmodulin-dependent protein kinase II subtype alpha, hub domain) (domain or fragment, UniProt Q9UQM7 345-475, looked up) VRKQEIIKVTEQLIEAISNGDFESYTKMCDPGMTAFEPEALGNLVEGLDFHRFYFENLWSRNSKPVHTTILNPHIHLMGDESACIAYIRITQYLDAGGIPRTAQSEETRVWHRRDGKWQIVHFHRSGAPSV	–	24	12
